Test results taken from patent publication US20250154277A1 (CONCEPT TO MEDICINE BIOTECH, published 2025).
Residue numbers refer to the chain shown, from its start. Like-named read-outs stand apart in the source and are kept apart here.

T1: human 5T4-His protein (human, UniProt Q13641 32-355)
T1 construct: also called recombinant 5T4 protein (human 5T4-his tag); human 5T4 protein; not shown: His tag
T1 sequence (looked up): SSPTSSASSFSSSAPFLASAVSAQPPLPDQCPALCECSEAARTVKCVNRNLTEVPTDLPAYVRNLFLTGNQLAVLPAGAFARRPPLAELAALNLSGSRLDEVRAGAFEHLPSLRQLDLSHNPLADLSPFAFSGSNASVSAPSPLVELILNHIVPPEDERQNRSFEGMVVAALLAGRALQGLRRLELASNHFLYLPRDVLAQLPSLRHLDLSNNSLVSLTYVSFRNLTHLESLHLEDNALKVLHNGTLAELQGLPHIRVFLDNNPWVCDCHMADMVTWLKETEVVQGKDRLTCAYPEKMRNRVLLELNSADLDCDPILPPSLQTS

T2: human 5T4 expressed on cells (human, UniProt Q13641 32-420)
T2 construct: whole, on cells; also called CHOK1-hu5T4; CHO-K1-expressing human 5T4
T2 sequence (looked up): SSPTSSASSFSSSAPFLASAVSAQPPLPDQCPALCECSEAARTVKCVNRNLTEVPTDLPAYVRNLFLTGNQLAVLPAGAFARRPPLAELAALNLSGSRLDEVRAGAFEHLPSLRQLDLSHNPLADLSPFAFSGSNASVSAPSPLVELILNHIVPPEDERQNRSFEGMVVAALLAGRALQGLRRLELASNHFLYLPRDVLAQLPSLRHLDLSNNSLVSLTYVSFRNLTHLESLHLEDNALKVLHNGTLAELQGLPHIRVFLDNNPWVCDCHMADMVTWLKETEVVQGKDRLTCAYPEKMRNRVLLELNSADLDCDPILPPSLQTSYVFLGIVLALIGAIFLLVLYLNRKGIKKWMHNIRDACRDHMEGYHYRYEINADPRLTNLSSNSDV

T3: cynomolgus 5T4 protein (cynomolgus monkey, UniProt Q4R8Y9 35-355, limits assumed)
T3 construct: Coated protein in ELISA; the screening step names a cyno 5T4-His protein; also called cyno 5T4; recombinant cyno 5T4-His protein
T3 sequence (looked up): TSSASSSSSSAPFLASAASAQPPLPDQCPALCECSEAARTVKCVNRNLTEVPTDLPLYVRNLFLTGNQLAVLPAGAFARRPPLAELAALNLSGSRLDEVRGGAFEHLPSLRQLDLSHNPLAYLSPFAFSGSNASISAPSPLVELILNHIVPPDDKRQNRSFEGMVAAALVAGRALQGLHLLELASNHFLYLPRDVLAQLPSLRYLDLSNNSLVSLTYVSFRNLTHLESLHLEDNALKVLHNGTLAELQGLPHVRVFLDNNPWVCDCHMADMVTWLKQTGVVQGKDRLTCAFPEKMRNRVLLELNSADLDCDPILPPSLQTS

B1: 37G6 chimeric antibody (antibody, V domains shown)
VH: QVQLQQPGAELVKPGASVKMSCKASGYTFTSYWITWVKQRPGQGLERIGDIYPGSGTINYNEKFKSKATLTVDTSSSTAYMQLSSLTSEDSAVYCCARSDGNYYFDYWGQGTTLKVSS
VL: QIVLSQSPAILSASPGEKVTMTCRASSSVNYMHWYQQKPGSSPKPWIYATSNLASGVPVRFSGSGSGTSYSLTISRVEAEDAATYYCQQWSSNPPTFGGGTKLEIK
B2: Hu14G12-28 (antibody, V domains shown)
VH: QVQLVQSGAEVKKPGASVKVSCKASGYAFSSSWMNWVRQAPGQGLEWMGRIYREDGHTNYNGKFKGRVTMTADKSITTAYMELSRLRSDDTAVYYCANGGAMDYWGQGTLVTVSS
VL: DIQMTQSPSSLSASVGDRVTITCRASQDISNYLNWYQQKPGKAPKLLIYYTSRLHSGVPSRFSGSGSGTDYTFTISSLQPEDIATYFCQQDNTLPWTFGGGTKVEIK
notes: humanized; also called parental Hu14G12-28 antibody
B3: Hu14G12-28-108# (antibody, V domains shown)
VH: B2 VH
VL: B2 VL with Q89A, Q90N
B4: Hu14G12-28-88# (antibody, V domains shown)
VH: B2 VH
VL: B2 VL with Q89G, Q90N
B5: 113H5 chimeric antibody (antibody, V domains shown)
VH: DVQLQESGPGLVKPSQSLSLTCSVTGYSITSGYYWNWIRQFPGNKLEWMGYINSDGSNNYNPSLKNRISITRDTSKNQFFLKLNSVTTEDTATYYCAREEYDYWFAYWGQGTLVTVSA
VL: DIVMTQSQKFMSTSVGDRVSVTCKASQNVGTNVAWYQQKPGQSPKALIYSASNRYSGVPDRFTGSGFGTDFTLTISNVQSEDLTEYFCQQYNSYPYTFGGGTNLEIK
notes: chimeric mAb

What was measured:
human 5T4-His protein [1] = biological target: T1, human 5T4-His protein; assay: ELISA, coated human 5T4-His
human 5T4-His protein [2] = biological target: T1, human 5T4-His protein; assay: ELISA, coated human 5T4-His; remark: listed apart in the source
[3] = biological target: T2, human 5T4 expressed on cells; assay: flow cytometry, CHOK1-hu5T4 cells
[4] = biological target: T2, human 5T4 expressed on cells; assay: flow cytometry, CHOK1-hu5T4 cells; remark: listed apart in the source
[5] = biological target: T2, human 5T4 expressed on cells; assay: flow cytometry, HEK293-hu5T4 cells
human 5T4-His protein [6] = biological target: T1, human 5T4-His protein; assay: competitive ELISA, coated human 5T4, vs naptumomab-biotin
human 5T4-His protein [7] = biological target: T1, human 5T4-His protein; assay: as above; remark: listed apart in the source
human 5T4-His protein [8] = biological target: T1, human 5T4-His protein; assay: as above; remark: listed apart in the source
human 5T4-His protein [9] = biological target: T1, human 5T4-His protein; assay: as above; remark: listed apart in the source
human 5T4-His protein [10] = biological target: T1, human 5T4-His protein; assay: SPR Biacore, Protein A capture
human 5T4-His protein [11] = biological target: T1, human 5T4-His protein; assay: ELISA, coated antigen
Description: (§1) ELISA testing was carried out to evaluate the binding of chimeric antibodies to human and cynomolgus, respectively. The antibody portion of naptumomab (NeoTX) that targets 5T4 (abbreviated as naptumomab in the present disclosure), was generated and used as a benchmark.
(§2) Briefly, microtiter plates were coated with human and cynomolgus 5T4 proteins at […] in PBS, 100 μl/well at 4° C. overnight, then blocked with 150 μl/well of 1% BSA. Serial dilutions of chimeric antibodies were added to each well and incubated for 1 hour at RT. The plates were washed with PBS/Tween and then incubate with mouse-anti-human IgG Fc antibody conjugated with Horse Radish Peroxidase (HRP) for 30 mins at RT. After washing, the plates were developed with TMB substrate and analyzed by spectrophotometer at OD 450 nm. All the 5T4 chimeric mAbs bound to human and cynomolgus 5T4 (FIG. 1-2 and Table 3).

cynomolgus 5T4 protein = biological target: T3, cynomolgus 5T4 protein; assay: ELISA, coated antigen
Description: as §1, §2

human 5T4-His protein [12] = biological target: T1, human 5T4-His protein; assay: ELISA, coated 5T4-His
human 5T4-His protein [13] = biological target: T1, human 5T4-His protein; assay: SPR Biacore, Protein A capture; remark: listed apart in the source
In short: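 Humanized 14G12 antibodies captured on a Protein A chip; serial dilutions of human 5T4-His injected for 120 s-180 s at 30 μl/min, with dissociation over 360 s-1000 s on a Biacore T200.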

human 5T4-His protein [14] = biological target: T1, human 5T4-His protein; assay: SPR Biacore, Protein A capture; remark: listed apart in the source
Description: (§3) The binding affinity of tested antibodies against recombinant 5T4 protein (human 5T4-his tag) was tested with Biacore using a capture method. The antibodies were captured using Protein A chip. A serial dilution of human 5T4-his tag protein was injected over captured antibody for 3 mins at a flow rate of 30 μl/min. The antigen was allowed to dissociate for 300 s. All the experiments were carried out on a Biacore T200. Data analysis was carried out using Biacore T200 evaluation software.

human 5T4-His protein [15] = biological target: T1, human 5T4-His protein; assay: ELISA, coated human 5T4-His; remark: listed apart in the source
Description: (§4) Briefly, microtiter plates were coated with human 5T4-His protein at 2 μg/ml in PBS, 30 μl/well at 4° C. overnight, then blocked with 5% PBS/Milk. Serial dilutions of antibodies were added to each well and incubated for 1 hour at room temperature. The plates were washed with PBS/Tween and then incubated with Goat Anti-Human IgG-HRP for 50 mins at room temperature. After washing, the plates were developed with TMB substrate and analyzed by spectrophotometer at OD 450 nm.

human 5T4-His protein [16] = biological target: T1, human 5T4-His protein; assay: ELISA, coated human 5T4-His; remark: listed apart in the source
Description: as §4

[17] = biological target: T2, human 5T4 expressed on cells; assay: flow cytometry, MCF-7 cells
Description: (§5) To evaluate the binding property of affinity maturated antibodies to surface 5T4, tested antibodies were analyzed for their binding to CHOK1-hu5T4, HEK293-hu5T4 or MCF-7 cells by FACS. […] After wash by FACS buffer, PE conjugated-anti-human IgG antibody was added to each well and incubated at 4° C. for 30 minutes. MFI of PE was evaluated by MACSQuant Analyzer 16.

[18] = biological target: T2, human 5T4 expressed on cells; assay: flow cytometry, CHOK1-hu5T4 cells; remark: listed apart in the source
Description: as §5

[19] = biological target: T2, human 5T4 expressed on cells; assay: flow cytometry, CHOK1-hu5T4 cells; remark: listed apart in the source
Description: as §5

[20] = biological target: T2, human 5T4 expressed on cells; assay: flow cytometry, HEK293-hu5T4 cells; remark: listed apart in the source
Description: as §5

[21] = biological target: T2, human 5T4 expressed on cells; assay: flow cytometry, HEK293-hu5T4 cells; remark: listed apart in the source
Description: as §5

human 5T4-His protein [22] = biological target: T1, human 5T4-His protein; assay: SPR Biacore, Protein A capture; remark: listed apart in the source
human 5T4-His protein [23] = biological target: T1, human 5T4-His protein; assay: SPR Biacore, Protein A capture; remark: listed apart in the source
Description: as §3, with “binding” for “binding affinity”, “of the chimeric mAbs from these clones” for “of tested antibodies”, “The mAbs” for “The antibodies”, “for 2-3” for “for 3”, “for 360-1000” for “for 300”

human 5T4-His protein [24] = biological target: T1, human 5T4-His protein; assay: competitive ELISA, coated human 5T4, vs naptumomab-biotin; remark: listed apart in the source

Row | Molecule | EC50 (human 5T4-His protein [11]) [nM] | EC50 (cynomolgus 5T4 protein) [nM] | Kd (human 5T4-His protein [14]) [nM] | koff (human 5T4-His protein [14]) [s⁻¹] | kon (human 5T4-His protein [14]) [M⁻¹ s⁻¹] | EC50 (read off the curve) (human 5T4-His protein [15]) [nM] | EC50 (read off the curve) (human 5T4-His protein [16]) [nM] | EC50 (read off the curve) [17] [nM] | EC50 (read off the curve) [18] [nM] | EC50 (read off the curve) [19] [nM] | EC50 (read off the curve) [20] [nM] | EC50 (read off the curve) [21] [nM] | fold increase of binding affinity against the parental Hu14G12-28 (human 5T4-His protein [22]) [fold] | other results
1 | naptumomab (antibody portion of naptumomab (NeoTX) that targets 5T4) | – | – | – | – | – | – | – | – | – | – | – | – | – | EC50 (read off the curve) (human 5T4-His protein [1]): 0.2 nM; EC50 (read off the curve) (human 5T4-His protein [2]): 0.1 nM; EC50 (read off the curve) [3]: 2 nM; EC50 (read off the curve) [4]: 1 nM; EC50 (read off the curve) [5]: 2 nM; IC50 (read off the curve) (human 5T4-His protein [6]): 3 nM; IC50 (read off the curve) (human 5T4-His protein [7]): 5 nM; IC50 (read off the curve) (human 5T4-His protein [8]): 4 nM; IC50 (read off the curve) (human 5T4-His protein [9]): 6 nM
2 | B1 | 0.13 | 0.28 | – | – | – | – | – | – | – | – | – | – | – | Kd (human 5T4-His protein [10]): 0.59 nM; koff (human 5T4-His protein [10]): 0.000486 s⁻¹; kon (human 5T4-His protein [10]): 823000 M⁻¹ s⁻¹
3 | B2 | – | – | 4.09 | 0.000738 | 180000 | ~0.2 | ~0.1 | ~0.2 | ~2 | ~1 | ~2 | ~2 | – | EC50 (human 5T4-His protein [12]): 0.01 µg/mL; Kd (human 5T4-His protein [13]): 2.42 nM; koff (human 5T4-His protein [13]): 0.000714 s⁻¹; kon (human 5T4-His protein [13]): 295000 M⁻¹ s⁻¹
4 | B3 | – | – | 0.552 | 0.000101 | 183000 | – | ~0.1 | ~0.3 | – | ~1 | – | ~2 | 7.41 | –
5 | B4 | – | – | 0.433 | 8.28e-05 | 191000 | ~0.2 | – | ~0.3 | ~2 | – | ~2 | – | 9.45 | –
6 | B5 | 0.52 | 0.82 | – | – | – | – | – | – | – | – | – | – | – | Kd (human 5T4-His protein [23]): 0.552 nM; koff (human 5T4-His protein [23]): 0.000192 s⁻¹; kon (human 5T4-His protein [23]): 348000 M⁻¹ s⁻¹; IC50 (read off the curve) (human 5T4-His protein [24]): ~6 nM
